We go through one substance from patent US20100203150A1, “Novel amphiphilic copolymers and fabrication method thereof” (priority 2009, published 2010).

The data set is described as follows: Solubility in common solvents and co-solvents. Conditions: some common organic solvents and co-solvents.

For the substance “5′-deoxy-5-fluorouridine-poly(ε-caprolactone) [5′-DFUR-PCL]”, the solubility entry is recorded as “soluble”.
